Measured values as given in publication PMC3460625 (PLoS Pathogens, 2012).

Target: T1, Nup98 (endogenous) (human (endogenous in HEK 293 and HeLa), UniProt P52948 1-880)
T1 construct: also called nucleoporin Nup98
T1 sequence (looked up): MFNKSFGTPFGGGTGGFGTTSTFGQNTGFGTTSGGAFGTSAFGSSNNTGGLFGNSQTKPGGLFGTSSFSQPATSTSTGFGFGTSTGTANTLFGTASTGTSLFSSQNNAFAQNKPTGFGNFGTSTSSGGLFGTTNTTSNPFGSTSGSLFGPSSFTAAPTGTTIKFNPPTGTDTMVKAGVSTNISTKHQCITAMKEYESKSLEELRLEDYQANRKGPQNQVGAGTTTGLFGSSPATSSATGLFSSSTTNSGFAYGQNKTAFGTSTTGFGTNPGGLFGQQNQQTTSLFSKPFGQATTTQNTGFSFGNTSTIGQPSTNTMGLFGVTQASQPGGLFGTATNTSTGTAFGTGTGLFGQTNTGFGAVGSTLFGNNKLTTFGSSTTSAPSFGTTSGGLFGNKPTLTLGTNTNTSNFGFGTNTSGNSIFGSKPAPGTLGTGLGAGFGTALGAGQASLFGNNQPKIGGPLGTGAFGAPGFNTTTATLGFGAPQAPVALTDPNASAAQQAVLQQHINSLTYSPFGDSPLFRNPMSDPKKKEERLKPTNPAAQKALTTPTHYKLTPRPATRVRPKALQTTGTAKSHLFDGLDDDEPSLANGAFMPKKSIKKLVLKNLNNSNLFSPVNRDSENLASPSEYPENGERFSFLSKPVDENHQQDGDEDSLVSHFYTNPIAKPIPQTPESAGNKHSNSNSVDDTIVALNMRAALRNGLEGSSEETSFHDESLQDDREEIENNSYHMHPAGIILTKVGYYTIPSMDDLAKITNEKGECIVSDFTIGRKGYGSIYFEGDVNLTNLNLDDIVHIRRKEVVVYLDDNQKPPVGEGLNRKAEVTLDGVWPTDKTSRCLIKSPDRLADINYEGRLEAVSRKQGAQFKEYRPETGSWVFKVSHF
Experiment: SEC + other: sucrose gradient sedimentation
Details: partners not purified

B1: Rae1 (endogenous) (natural protein, human (endogenous in HEK 293 and HeLa), UniProt P78406 1-368, looked up)
chain: MSLFGTTSGFGTSGTSMFGSATTDNHNPMKDIEVTSSPDDSIGCLSFSPPTLPGNFLIAGSWANDVRCWEVQDSGQTIPKAQQMHTGPVLDVCWSDDGSKVFTASCDKTAKMWDLSSNQAIQIAQHDAPVKTIHWIKAPNYSCVMTGSWDKTLKFWDTRSSNPMMVLQLPERCYCADVIYPMAVVATAERGLIVYQLENQPSEFRRIESPLKHQHRCVAIFKDKQNKPTGFALGSIEGRVAIHYINPPNPAKDNFTFKCHRSNGTNTSAPQDIYAVNGIAFHPVHGTLATVGSDGRFSFWDKDARTKLKTSEQLDQPISACCFNHNGNIFAYASSYDWSKGHEFYNPQKKNYIFLRNAAEELKPRNKK
notes: also called host Rae1; cellular Rae1
B1 was tested, and the “stoichiometry N” value was 1.
